Broadly, the EC50 is the concentration needed to bring the measured effect to its halfway point. Broadly, the Kd is the equilibrium constant for the complex coming apart.

EC50 and Kd data for one molecule are collected here from PMC5675522 (Angiogenesis, 2017).

The target in experiment [1] is T1, recombinant human SFRP2 (secreted frizzled-related protein 2) with C-terminal hexahistidine tag (human, UniProt Q96HF1 25-295).
T1 sequence (looked up): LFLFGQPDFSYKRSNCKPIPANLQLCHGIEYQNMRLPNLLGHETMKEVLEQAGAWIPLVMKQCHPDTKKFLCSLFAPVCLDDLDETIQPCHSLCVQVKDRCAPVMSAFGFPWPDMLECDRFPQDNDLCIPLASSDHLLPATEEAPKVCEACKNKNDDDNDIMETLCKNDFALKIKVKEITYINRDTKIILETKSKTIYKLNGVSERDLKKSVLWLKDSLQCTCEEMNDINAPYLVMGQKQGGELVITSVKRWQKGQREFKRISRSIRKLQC
As to the kind of experiment: ELISA.

The target of experiment [2] is T2, recombinant human Wnt5a (human, UniProt P41221 62-380).
T2 sequence (looked up): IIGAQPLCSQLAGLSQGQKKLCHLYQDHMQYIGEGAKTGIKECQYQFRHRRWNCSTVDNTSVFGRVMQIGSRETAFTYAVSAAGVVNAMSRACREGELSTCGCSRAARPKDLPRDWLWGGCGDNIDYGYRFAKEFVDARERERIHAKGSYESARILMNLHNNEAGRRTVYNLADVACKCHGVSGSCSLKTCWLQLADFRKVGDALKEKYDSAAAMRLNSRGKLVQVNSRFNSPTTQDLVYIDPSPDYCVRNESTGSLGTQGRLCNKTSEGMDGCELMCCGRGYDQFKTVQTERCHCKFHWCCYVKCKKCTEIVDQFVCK
As to the kind of experiment: ELISA. (In an ELISA, binding on a coated surface is turned into a signal by an enzyme label.)

B1: Frizzled-5 Fc Fusion protein (Fc fusion, human, UniProt Q13467 27-238, looked up)
chain: ASKAPVCQEITVPMCRGIGYNLTHMPNQFNHDTQDEAGLEVHQFWPLVEIQCSPDLRFFLCSMYTPICLPDYHKPLPPCRSVCERAKAGCSPLMRQYGFAWPERMSCDRLPVLGRDAEVLCMDYNRSEATTAPPRPFPAKPTLPGPPGAPASGGECPAGGPFVCKCREPFVPILKESHPLYNKVRTGQVPNCAVPCYQPSFSADERTFATFW
As for B1, in experiment [1], the concentration for a half-maximal effect (EC50) came out at 205 nM and the Kd stood at 103 nM. In addition, in experiment [2], the EC50 turned out to be 216 nM and the Kd turned out to be 108 nM.
